Legend:
[1] = target: FES^S700C (Homo sapiens, UniProt P07332, S700C); assay: In vitro TR-FRET kinase assay; format: biochemical; set-up: human FES cDNA encoding residues 448–822 or human FER cDNA encoding residues 448–820 was amplified by PCR; made in house; host or cells: E. coli BL21(DE3), co-expressing YopH phosphatase
[2] = target: T1, FES^WT (Homo sapiens, UniProt P07332); assay: In vitro TR-FRET kinase assay; format: biochemical; settings: TR-FRET assay, 5 µM ATP; n = 3
T1 construct: human FES cDNA encoding residues 448–822 or human FER cDNA encoding residues 448–820 was amplified by PCR; made in house; host or cells: E. coli BL21(DE3), co-expressing YopH phosphatase
T1 sequence (P07332 448-822): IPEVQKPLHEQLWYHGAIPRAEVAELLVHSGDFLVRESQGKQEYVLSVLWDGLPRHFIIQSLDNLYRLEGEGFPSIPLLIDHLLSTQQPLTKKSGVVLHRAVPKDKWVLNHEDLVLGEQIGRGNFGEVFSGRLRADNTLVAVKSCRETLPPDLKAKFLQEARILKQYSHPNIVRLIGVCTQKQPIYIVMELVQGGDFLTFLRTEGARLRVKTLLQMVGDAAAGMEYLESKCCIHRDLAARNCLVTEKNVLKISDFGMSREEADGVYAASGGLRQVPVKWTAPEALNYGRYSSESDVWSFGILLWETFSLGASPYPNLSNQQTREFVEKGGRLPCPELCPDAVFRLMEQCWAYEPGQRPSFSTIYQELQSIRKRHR
Protocol: All measurements were performed in triplicate.

[3] = target: SYK (Homo sapiens, UniProt P43405); assay: PamChip microarray peptide phosphorylation; settings: peptide substrate phosphorylated by SYK
[4] = target: ABL1 (Homo sapiens, UniProt P00519); assay: PamChip microarray peptide phosphorylation; settings: peptide substrate phosphorylated by ABL1
Chain of ABL1 (P00519 whole entry): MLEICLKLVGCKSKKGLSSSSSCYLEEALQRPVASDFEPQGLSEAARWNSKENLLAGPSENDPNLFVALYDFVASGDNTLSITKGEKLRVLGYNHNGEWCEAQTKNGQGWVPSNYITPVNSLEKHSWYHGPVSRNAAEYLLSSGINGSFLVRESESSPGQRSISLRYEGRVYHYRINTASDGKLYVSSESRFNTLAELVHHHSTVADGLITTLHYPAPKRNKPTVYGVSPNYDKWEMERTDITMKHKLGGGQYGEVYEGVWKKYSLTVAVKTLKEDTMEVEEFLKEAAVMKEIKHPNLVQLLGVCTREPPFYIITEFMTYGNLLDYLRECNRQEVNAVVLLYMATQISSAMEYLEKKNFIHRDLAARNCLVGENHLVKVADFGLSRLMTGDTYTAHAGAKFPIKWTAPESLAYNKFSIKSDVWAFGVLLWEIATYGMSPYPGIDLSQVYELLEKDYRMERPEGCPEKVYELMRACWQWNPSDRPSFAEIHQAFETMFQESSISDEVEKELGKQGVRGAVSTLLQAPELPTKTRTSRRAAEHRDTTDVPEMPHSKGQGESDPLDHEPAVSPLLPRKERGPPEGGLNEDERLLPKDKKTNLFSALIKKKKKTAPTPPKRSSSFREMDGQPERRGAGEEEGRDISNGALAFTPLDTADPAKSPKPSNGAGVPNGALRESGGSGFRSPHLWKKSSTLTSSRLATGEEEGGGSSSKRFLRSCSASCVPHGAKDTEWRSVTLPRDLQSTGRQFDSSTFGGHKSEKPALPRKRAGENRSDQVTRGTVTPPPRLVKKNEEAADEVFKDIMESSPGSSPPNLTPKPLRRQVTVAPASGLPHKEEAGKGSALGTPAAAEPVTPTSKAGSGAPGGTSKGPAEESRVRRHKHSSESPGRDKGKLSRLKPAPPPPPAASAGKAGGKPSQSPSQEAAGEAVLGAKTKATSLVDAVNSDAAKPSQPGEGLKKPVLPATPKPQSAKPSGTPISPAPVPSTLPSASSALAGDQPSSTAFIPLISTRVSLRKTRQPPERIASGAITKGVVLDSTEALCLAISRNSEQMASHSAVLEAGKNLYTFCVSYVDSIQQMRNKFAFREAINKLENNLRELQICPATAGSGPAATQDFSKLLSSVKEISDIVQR

[5] = target: T1, FES^WT; assay: PamChip microarray peptide phosphorylation; format: biochemical; settings: peptide substrate phosphorylated by FES - WT
[6] = target: CSK (Homo sapiens, UniProt P41240); assay: PamChip microarray peptide phosphorylation; settings: peptide substrate phosphorylated by CSK
Chain of CSK (P41240 whole entry): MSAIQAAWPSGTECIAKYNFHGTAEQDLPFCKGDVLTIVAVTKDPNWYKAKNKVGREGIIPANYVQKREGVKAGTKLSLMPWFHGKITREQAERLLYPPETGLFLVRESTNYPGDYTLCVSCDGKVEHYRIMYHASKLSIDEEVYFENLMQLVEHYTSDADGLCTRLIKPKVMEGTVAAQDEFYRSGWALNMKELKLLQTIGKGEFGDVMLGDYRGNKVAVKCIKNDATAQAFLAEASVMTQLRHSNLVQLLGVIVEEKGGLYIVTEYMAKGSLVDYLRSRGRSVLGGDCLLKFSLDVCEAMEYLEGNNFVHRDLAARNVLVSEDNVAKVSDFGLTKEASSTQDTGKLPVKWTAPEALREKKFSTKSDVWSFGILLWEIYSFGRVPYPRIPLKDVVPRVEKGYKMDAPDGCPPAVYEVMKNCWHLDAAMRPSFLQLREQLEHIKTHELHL

[7] = target: FGR (Homo sapiens, UniProt P09769); assay: PamChip microarray peptide phosphorylation; settings: peptide substrate phosphorylated by FGR
[8] = target: LYN (Homo sapiens, UniProt P07948); assay: PamChip microarray peptide phosphorylation; settings: peptide substrate phosphorylated by LYN
Chain of LYN (P07948 whole entry): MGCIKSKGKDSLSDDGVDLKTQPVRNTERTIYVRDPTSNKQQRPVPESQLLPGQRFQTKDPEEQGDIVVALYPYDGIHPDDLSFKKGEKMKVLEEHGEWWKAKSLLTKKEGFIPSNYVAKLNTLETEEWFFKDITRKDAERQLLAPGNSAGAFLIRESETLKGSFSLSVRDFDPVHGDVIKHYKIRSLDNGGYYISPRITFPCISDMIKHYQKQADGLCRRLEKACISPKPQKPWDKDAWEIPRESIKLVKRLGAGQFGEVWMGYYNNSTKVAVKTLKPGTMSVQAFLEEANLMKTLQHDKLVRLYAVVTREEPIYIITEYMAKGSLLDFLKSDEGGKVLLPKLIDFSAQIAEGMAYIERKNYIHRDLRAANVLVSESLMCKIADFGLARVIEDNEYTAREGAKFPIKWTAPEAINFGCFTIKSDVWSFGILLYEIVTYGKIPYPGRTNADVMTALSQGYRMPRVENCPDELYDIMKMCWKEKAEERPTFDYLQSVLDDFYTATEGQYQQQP

Chain of FES^S700C (P07332 448-822 S700C): as the sequence (P07332 448-822) above, with S253C counted along it

| Molecule | Apparent fold selectivity ([1]; IC50 on FES^WT divided by IC50 on FES^S700C) [fold] | pIC50 FES^S700C ([1]; TR-FRET assay, 5 µM ATP, n = 3) | pIC50 FES^WT [2] | Relative phosphorylation (% of highest signal) [3] | Relative phosphorylation (% of highest signal) [4] | Relative phosphorylation (% of highest signal) [5] | Relative phosphorylation (% of highest signal) [6] | Relative phosphorylation (% of highest signal) [7] | Relative phosphorylation (% of highest signal) [8] |
| --- | --- | --- | --- | --- | --- | --- | --- | --- | --- |
| C=CC(=O)Nc1cccc(Nc2nc(Nc3ccccc3OC)ncc2Cl)c1 [Compound 3] | 0.65 | 6.3 ± 0.06 | 6.5 ± 0.06 |  |  |  |  |  |  |
| VGFR2_1046_1058 (DFGLARDIYKDPD; UniProt P35968 1046-1058, looked up, fragment) |  |  |  | 0.6 % of highest signal | -0.11 % of highest signal | 1.1 % of highest signal | 2.2 % of highest signal | 1.2 % of highest signal | 0.243 % of highest signal |
| VGFR2_1168_1180 (AQQDGKDYIVLPI; UniProt P35968 1168-1180, looked up, fragment) |  |  |  | 2.7 % of highest signal | 0.014 % of highest signal | 6.1 % of highest signal | 0.544 % of highest signal | -1.8 % of highest signal | 0.147 % of highest signal |
| VGFR2_1207_1219_C1208S (VSDPKFHYDNTAG; UniProt P35968 1207-1219, looked up, variant C1208S) |  |  |  | -1.4 % of highest signal | -0.742 % of highest signal | 0.5 % of highest signal | -1.4 % of highest signal | -0.6 % of highest signal | -0.213 % of highest signal |
| VGFR3_1061_1073 (DIYKDPDYVRKGS; UniProt P35916 1061-1073, looked up, fragment) |  |  |  | 2.4 % of highest signal | 2.9 % of highest signal | -0.0595 % of highest signal | 0.341 % of highest signal | 0.468 % of highest signal | 0.0483 % of highest signal |
| VINC_815_827 (KSFLDSGYRILGA; UniProt P18206 815-827, looked up, fragment) |  |  |  | -1.0 % of highest signal | 1.1 % of highest signal | 0.223 % of highest signal | -0.442 % of highest signal | -2.6 % of highest signal | -0.3 % of highest signal |
| ZAP70_485_497 (ALGADDSYYTARS; UniProt P43403 485-497, looked up, fragment) |  |  |  | 10.4 % of highest signal | -0.0741 % of highest signal | 3.5 % of highest signal | 0.277 % of highest signal | 7.8 % of highest signal | 1.0 % of highest signal |
| ZBT16_621_633 (LRTHNGASPYQCT; UniProt Q05516 621-633, looked up, fragment) |  |  |  | -1.0 % of highest signal | -0.119 % of highest signal | 0.657 % of highest signal | -0.468 % of highest signal | 3.8 % of highest signal | -0.2 % of highest signal |

Source: publication PMC7316778 (Nature Communications, 2020)
